A short description of the data set: soluble on expression in E. coli; label from the status in PepcDB or PDB records.
“MTTSSHGLEKAMELAKFSKSQKERAREILEAGLLEATYGHLAPSSNFVGGMCVGNVSPGGEPVNLNAKVTGYLPKIKEMAEKHGVAQYVGILAAQMMQESQGEGNDPMQAAEGHYGDLSSSCIGLKGSARIGCIKDPNISIEAGVQEFKDVLAKANGDIALALQSYNYGPGFISYALAKGGYSEETAIAFSREHAGENPAGCSDPNNFRTKVGACYGDFTYVSKILKYYKDLGCVTAGDGEWISDKGWKWPTKSGRITDTFDAVRNGKQHNAVDIGAMTAGKPGDPVWSMEAGVVTAQTGYVNYGGLGVYIDHGNGIVSRYLHLSKISVTPGTMVTKGQIIGEMGGSNYVGGVLNMLGYAVHLDFQIRINDQPTDPMKFFKKNDDPGLSSGGSPTMTNAKRQKVLEEAKKWLGQGKVRYVLGDRNPPGGTSDCSGFTQYVFRTSIGVQLGDWTGAQVGQGKQVPDINHAQPGDLIFYENPGHVAIYMGNQKMIHIGDNKGVQITGLNYTARGQHMTQIRNVID”: the “soluble on expression in E. coli” value was “not soluble”.
The result for “MSLKVHHLNESRSQRILWLLEELSLPYEIVQHTRDAKTRLAPPSLTDVHPLGKSPVIQDGALVVIESGAIIDYIIRRHGGGRLAPDAASADYDRYQQWLHYAEGSAMLPLMLNMYVGRLGEAGAPLHPRIQSEIANHLAFVNDSLAGRDYFVGDSLTGADIQMSFVPEVAKAMGKLADYPHMAAWIGRMHARPAWKTALDKGGPYALGAEGHHHHHH” reads “soluble”; that for “MSADYSSEKFKATHLFDEILWHFRSNLSLKTNRRGLATAENSFSGKEAVDFLMIEMPRIIPNNVPERDKMQKFLEFMMDMNVISEAFPKKVKQRRPFSESRIYLFMKTLDELKHPKPRSRRSASFSGARKSAKVAQPASPAATMHRPPKARLPRRLSRSNGNIDKAGIDNSSGGVENHGFDDHKDDEIPKKQRTPKILNRSLESICTEEYTEKREVSEMKEKVYDWLPFFKSRRNHTKVNQPTRRSASLDRNHCVLEQEKAEAALRSQKVTTPPIREAPKDVVFMHPQGPLPAVPSRYQNHRTSIAGSNPALLSRGRMYESIMRRSSVVPVADSVQANNECSFWKTELLGRLEQIYDRTLPCEWASKVDGYDIQWNMIEIDHADGIVKSRCQGLQPDYPQTVIQFMDYLVRYPFVTHKKMDTGLEYNVNRIFITLVNRLEDLNAPLQFDECSLIVNLLCKIDSFAAMLDNGPARRWSKVMISSSASSIEEAGLMVDGFSRDLPACGIRASKYRRRALSPFDNRVNLEIQDEKSYEIREQWLIEAIQLVLLSLPTSRRRKLHKFVTFIQSIETNAVFDLADPSNGSSNNREAAIIGLWTGVCSKCRKQQGMLITAVLLANFQSLFAVPVEFIEQVKRLECEEKDRYSGPRYAKITRSRNDWQPPVPDKPQASPAVFKKPLREVACEKTKKGLFTRLLRK”, “not soluble”; that for “MHPALKYMRQDRLPHIFCSGCGNGIVMNCFLKAIEELNIKPEDYIAVSGIGCSSRVPGYLYCDSLHTTHGRPIAFATGIKIARPDKHVVVFTGDGDLAAIGGNHFIHGCRRNIDLTVICINNNIYGMTGGQVSPTTPYGKKATTAPYGSIENTMDLCKMAIAAGATYVARWTTAHPIQLVRSIKKGIQKKGFAFIEVVSQCPTYYGRFNISRKPADMIKFLKENSIHLNKAKDMSEEELNGKIVVGEFLDIEKPEFVEELHKLIEKLKSE”, “not soluble”.
Regarding “MIDTTVFQDKTAVYYTLGCKLNFSETSTIGKILREAGVRTARKGEKADLCIVNTCSVTEMADKKCRQAIHRLVKQHPGAFVVVTGCYAQLKPGDVAKIEGVDVVLGAEQKKDLLQYLGDLHKHEGGEAYTTATKDIRSFAPSCSRGDRTRFFLKVQDGCDYFCSYCTIPFARGRSRNGTIASLVEQARQAAAEGGKEIVLTGVNIGDFGKSTGETFFDLVKALDRVEGIERYRISSIEPNLLTDEIIEYVSRSRSFMPHFHIPLQSGSDEVLQLMRRRYGTELFASKIAKIKEVMPDVFIGVDVIVGTRGETAGYFEKAYEFIHGLDVTQLHVFSYSERPGTQALKIDHVVTPEEKHQRSQRLLALSDEKTKAFYARYIGQTMPVLMEKPKAGALMHGFTANYIRVEVESDAALDNKVVNVLLGDFNEEGTALKGTITQLEHHHHHH”, the “soluble on expression in E. coli” value is listed as “not soluble”.
On to “MIYGILSKNLGMPTPTFLVCPDVVKFENVGQIAVVNGMVYLGGSVGIDKSGTLHKGLEEQTRQTFDNIRKCLEYANSGLDYIVSLNIFLSTSLSDSEEARFNELYREVFCVPATRPCRCCVRAQLQEGLLVEVVNVVAAQK”, for which the “soluble on expression in E. coli” value is “soluble”.
The result for “MSLKINVADFHGTYLENPRTVNNFSLTGTDQKVFDNSSLQGRWTLVFFGFTNCGYLCPTTMAELGKMYRILEKKGVKNLPQVVMISIDPQRDSLDKLGSYVTSFHKSFYGARGEEDSIKSMTHEMGIAYAKINSKESSEPENYDIQHSGAVMLFNPQGELNAFFTTPHHADLLAKDYVLLVSEGHHHHHH” reads “soluble”.
As to “MQSVTPTSQYLKALNEGSHQPDDVQKEAVSRLEIIYQELINSRPPAPRTSGLMARVGKLWGKREDTKHTPVRGLYMWGGVGRGKTWLMDLFYQSLPGERKQRLHFHRFMLRVHEELTALQGQTDPLEIIADRFKAETDVLCFDEFFVSDITDAMLLGGLMKALFTRGITLVATSNIPPDELYRNGLQRARFLPAIDAIKQHCDVMNVDAGVDYRLRTLTQAHLWLSPLNDETRAQMDKLWLALAGVKRENSPTLEINHRPLATMGVENQTLAVSFTTLCVDARSQHDYIALSRLFHTVMLFDVPVMTRLMESEARRFIALVDEFYERHVKLVVSAEVPLYEIYQGERLKFEFQRCLSRLQEMQSEEYLKREHLAGLEHHHHHH”, the “soluble on expression in E. coli” value was “soluble”.
Turning to “MKVAFVIRKDCKRCATIAKSIIELIPPDWEKIYDTEAAKFLGGVGKDITEISADIIIAIGGDGTVLRILQNAKGPVLGINMGGLGFLTEIEIDEVGSSTYKLIRGEYKINEAMKLKVYINGRRLEDCTNEAVVHTDRIARIRQFKIYVDGHFLTTIKSDGVIVATPTGSSSYSSSAGGPLLLPTVRGMVISYLAPYSSRIKPVVVPSESTVEIKIAGNDQDSLLILDGQKEYKIKSGDTVSISMSEEKARFVSFRESIYDRLRDKVIKHVVN”, the “soluble on expression in E. coli” value was “soluble”.
Regarding “MGSDKIHHHHHHMIHVAHHYEMRHPTADIQETSMSSAQEERLRFIDFRLMFLGDVSRQDLTDRFGISEPAATRDLTQYRERCAANMEYSHVQRAYLRNYNFAPLYDHESTEALAMIAHGHLALPRRERKPLLRCDLPIQLDSPDSMVVSTITRAINHQHVISIDYRSHSSGETRRQIVPFALVDNGLRWHIRAYDRRRLRFSDFVISRISNPTIEESVVLTHERWEHDIQWNRIVELELVPHPKRPHPETTLFEYGMVNGISRLRVRAAVAGYFLRRWNVDCSPDHCLEGNEYQLWLKNRETLYGVETLEIAPGYL”, the “soluble on expression in E. coli” value is “not soluble”.
As to “DVQLQQSGPGLVAPSQSLSITCTVSGFSLTDYGVNWVRQSPGKGLEWLGVIWGDGITDYNSALKSRLSVTKDNSKSQVFLKMNSLQSGDSARYYCVTGLFDYWGQGTTLTVSSASGADHHHHHH”, the “soluble on expression in E. coli” value is listed as “soluble”.
With “MTSSIPFRSFNEKYECNDDDNFTYSSTEQKRIETMLFENYNSLVLEPFKTTSDEDLAELTIFRQKHASYLLRYLKNCPSSYATLDASRSWMCYWGVNALKILDAEIPNDVIENIIVFLKSCEHPEGGYGGGPGQLAHLAPTYAAVMCLVSLQKEEALRSINRVTLFNFLKKCKHESGGFYMHEGGEIDMRSAYCALATCEIVGLPMDEISNGVAEWIISCQSFEGGFGGEPYTEAHGGYTFCAVASLVLLNRFRLADMEGLLRWATRRQMRFEGGFQGRTNKLVDGCYSFWQGAIFPLLDGEMEREGRSLEKGLFEARMLEEYILVGCQSVHGGFKDKPDKPVDLYHTCYVLSGLSVAQKYSLARDGKILGGDVNMLAEINPVFNVTIASEQFAKEFFTSH”, the “soluble on expression in E. coli” value is “not soluble”.
On to “MTLFEPSTSGNRMGYRGSSNSSSGVGSGGSGSLMTQSIGGPNKHLSASHSTLNTASTHDMMHSKIPKSPSNESLSRSHTSSSGGSQGGHNSNSGSNSGFRPEDAVQTFGAKLVPFEKNEIYNYTRVFFVGSHAKKQAGVIGGANNGGYDDENGSYQLVVHDHIAYRYEVLKVIGKGSFGQVIKAFDHKYQQYVALKLVRNEKRFHRQADEEIRILDHLRRQDSDGTHNIIHMLDYFNFRNHKCITFELLSINLYELIKRNKFQGFSLMLVRKFAYSMLLCLDLLQKNRLIHCDLKPENVLLKQQGRSGIKVIDFGSSCFDDQRIYTYIQSRFYRAPEVILGTKYGMPIDMWSLGCILAELLTGYPLLPGEDENDQLALIIELLGMPPPKSLETAKRARTFITSKGYPRYCTATSMPDGSVVLAGARSKRGKMRGPPASRSWSTALKNMGDELFVDFLKRCLDWDPETRMTPAQALKHKWLRRRLPNPPRDGLESMGGLADHEVCFIIF”, for which the “soluble on expression in E. coli” value is on record as “not soluble”.
Take “MASMTGGQQMGRIPGNSPRMVLLESEQFLTELTRLFQKCRSSGSVFITLKKYDGRTKPIPRKSSVEGLEPAENKCLLRATDGKRKISTVVSSKEVNKFQMAYSNLLRANMDGLKKRDKKNKSKKSKPAQGGEQKLISEEDDSAGSPMPQFQTWEEFSRAAEKLYLADPMKVRVVLKYRHVDGNLCIKVTDDLVCLVYRTDQAQDVKKIEKFHSQLMRLMVAKESRNVTMETE”: the “soluble on expression in E. coli” value is on record as “soluble”.
In the case of “MSLYAAYAGNLDARLMTRRAPHSPLRATGWLNGWRLTFGGEHMGWEGALATLVEDPISQVFVSLYDIAPMDEDSLDRWEGVGLDIYRRTRVRIHTLDGEEGAWTYVLNAYEGGLPSARYLGEIADAAESSGAPHDYVMELRKRPCLEHHHHHH”, the “soluble on expression in E. coli” value is given as “not soluble”.
As for “MSLVENLSLEPQPKRRKIDPEVKESPSRNCSHWFVRNKVCASCNTIVDNYQGRSFDYLYTGIQMSNEALGFTKRLISQTSWLEDKKLHLVLDLDHTLVHTIKVSQLSESEKYITEEVESRKDLRRFNTGFPEESLIKLRSFVHQFLKECNEMFSLYVYTKGGYDYAQLVLEMIDPDKIYFGNRVITRRESPGFKTLDLVLADERGIVVVDDKSSVWPHDKKNLLQIARYKYFGDQSCLLSECKKKIDESDEKGPLNTALRFLMDVHEEFFCDWSRKDLDSVDVRPLLKEISLRWKRKADGVV”, the “soluble on expression in E. coli” value is “soluble”.
Regarding “FQVPMSNLLTVHQNLPALPVDATSDEVRKNLMDMFRDRQAFSEHTWKMLLSVCRSWAAWCKLNNRKWFPAEPEDVRDYLLYLQARGLAVKTIQQHLGQLNMLHRRSGLPRPSDSNAVSLVMRRIRKENVDAGERAKQALAFERTDFDQVRSLMENSDRCQDIRNLAFLGIAYNTLLRIAEIARIRVKDISRTDGGRMLIHIGRTKTLVSTAGVEKALSLGVTKLVERWISVSGVADDPNNYLFCRVRKNGVAAPSATSQLSTRALEGIFEATHRLIYGAKDDSGQRYLAWSGHSARVGAARDMARAGVSIPEIMQAGGWTNVNIVMNYIRNLDSETGAMVRLLEDGD”, the “soluble on expression in E. coli” value was “soluble”.
For “MSDISIEMIKRIVEEVVKKFLSKKILVVFTGGKVNFDISLDELKKIKENSMVEYTLVFSRAASQIFNKKMISDQLESVEVIEEGEAINARECVQKHNMVIFATLTRNTASKISHLILDTLPTQIAINCVLSDVPIVAVRDAADLNVETWRELGFSNFPPALKNSYDKIFKDIESYGIELCNSFELAKKVLGYLNSNSFSIAEKINKEEKSKRENSYYNGAKNIRLEKKIITREDIIGLKGKIDTIEIAKDSIITPLAMDFIRDNQLKVIKT”, the “soluble on expression in E. coli” value was “not soluble”.
The result for “MGHHHHHHSHMWKVVNLPTDLFNSVMNVGRFTEEIEWLKFLALACSALGVTITKTLKIVCEVLSCDHNGGLPRIPFSTFQFLYTYIAEVDGEICASHVSRMLNYIEQEVIGPDGLITVNDFTQNPRVWLE” reads “not soluble”.

The values are drawn from the DeepSol protein solubility set.
